Test results: the DeepSol protein solubility set

Assay: soluble on expression in E. coli; label from the status in PepcDB or PDB records

Sequence	soluble on expression in E. coli
MDRVRNLLEQIQGRLDELNKAERKVAEVILLNPQMATRLSIAALAQAAKVSEPTVNRFCRSFSVSGYPELKLQLAQSLASGAAYVSRAVEADDNPEAYTQKIFGSAIASLDSACQQLDPALVSKSVDMLIQARQIHFFGLGASAPVALDAQHKFFRFNLAVTAHADVLMQRMIASVAHTGELFVIISYTGRTRELVEVARIARANGASVLGLTAAGSPLAQASTVSLNIPLPEDTDIYMPMTSRIIQLTVLDVLATGMTLRRGVDFQPHLRKIKESLNDSRYPIEDQG	not soluble
MDSENSSSHSISSPQMFQNTHNNSAMEDNLLSRPMNNESLQMIIGYLRRNGLTETEELLTREAGPVLRVEGSNGLPPEEAISVEFDTFVQHANDCTDVVQAEFSQLLFPIFAHSYIALIEKHAATARIFFNRFKIFIPECFSEFVYQLSLIEDAMTLRANEHVHILRENKFLVRLSRPTLKHLESIQTRVIGVKNIIAKHICIENADEVSTNRTTIETQMGGILGVTSKSDKRHKMMFSVLKDELMQNIEKRKTKGKDWKDMGKKMQTHCPQADRIPLPPISEHLREERRNWLRDVGKMAIISAESPVSICMYTTVNAPIGVASCDFTDDSSLIAMGLSDSSIVMNAMDPMNKMKKLRDMEFLDKIDIETADNVQSQMFDLQGSTTSVRYTGHGGPVFSVNFSPDRRLLISSAGDRTVRLWSMETQRNAVIYRTPAVAQFCSRGYYFATASADKTAAMWSTDRMHPLRIFADPYGDVGCIDYHPNCNYIAGGSDDRYVRVWDVCSGTRVRIFSGHKASIIAVKFSPCGRYIVSLDAIGNLMIWDLAYQRLVAAEITEQAGTKGSITFSRDGGVFAVSHGNSSIQLYSLDTLIGTVLAAGQNDSYIEPKVNLDGFNIGSYATKETAVIGLHFTRRNLLLGFGCFGQ	soluble
MDSHCRVRPAGPAVPADCDPPRITHAALAARLGDARLLTLYDQATWSEGPAWWEAQRTLVWSDLVGRRVLGWREDGTVDVLLDATAFTNGNAVDAQQRLVHCEHGRRAITRSDADGQAHLLVGRYAGKRLNSPNDLIVARDGAIWFTDPPFGLRKPSQGCPADPELAHHSVYRLPPDGSPLQRMADLDHPNGLAFSPDEQTLYVSQTPEQGHGSVEITAFAWRDGALHDRRHFASVPDGLPDGFCVDRGGWLWSSSGTGVCVFDSDGQLLGHIPTPGTASNCTFDQAQQRLFITGGPCLWMLPLP	soluble
MDSLKEAEIREVFREFDKNGDGRITRQELEVALLQLGEKASNSKIETMIEQADLDGNGCIDIDEFLNVLRRQICDPKEERELRDVFNVFDKNGDGVISIDDLIFVMCQLGEKLTETEAKEMIKQGDLDHDGMIDFQEFVNIIKGQ	soluble
MDSTMSEHADVLIVGGGPVGALAALRLARQGRSVLLLEARAKDAEVRDARALALSWHSRRLLEEAGAWPADLPATAIDTVHVSQQGGCGRTRLDSADLGLPHLGAVVDYPALVAGLGGALEAAGVQVIWQCRVTAVKSLSQYACAEVETPQGKQLLTGSLLVLAEGGALAETLPGIRRLTHDYRQCALLAEVETELPPQGVAYERFAHAGPFALLPHGERYMLVWTRSQADAERLAAADAAVLRDELQQAFGERQGRILSIGPRASFPLALRQANRVTSGRVALIGNAAQTMHPVAAQGLNLGLRDAVGLADALENAADAGDARALKRYADSRKLDSHAVVGFTHGLIKLFDGHHPLMSRLRGVGMTALDALPSLRRKFAGHLVFGVRGLEHHHHHH	soluble
MDTLKRGKYAKFLHNYLVDNSSQRGYVLNLNAQWGAGKTYFINRWIDSIKDAHPVVYIDAWKQDYSDDPMLTVVSSIIDALEEHLPAGNKKAIALKNKATRFFKAAAPLLMKGLIKKATGMNIDDVEPETEKKEGSDLYNLTGEASAALAKCLIDDHNEKLKTVEHLRSDIKSLIEALDPKKKLKLPAFIFIDELDRCRPSYAVEMLEVIKHFFELENIVFVVATDTEQLQHAVKAVYGEGFDAQTYLGRFFRRRYSLSESSRFEFVKQMVGESYEIKSLEHHHHHH	not soluble
MDVNQFTELITKLQSADNDIRKQAEEVYEKIEGPTKVAALFEAYTHHTNNSDARSTVLVFLRRVLARDWDAIWETLNEENKQRILAKVLEMIVHETELSIKKKIADLISEIASNLIDDSGDMTWGGVLELMDHCLKSEDLTGNYIALLILRGCPIIFGNRLAHFLPTLKVVLEKCMATPDLQIKATAVRAVIAFAVDNDEEKDVVRLMTSLVPNVLQVCNETSDEDDSDGPLGEFAELASSLPKCLNTHMSQVLQVTLAIAGNKEKNEMVRQNAIEVICSYMESAPKGLKKYAPGALGPILETLLSCMTEMDDDVLNEWLNEIEEEEDYEDIPIIAESAIDRVACCINGKVMLPVFLPLVEKLLTSEDWKMKHAALRAFSAVGEGCQRSMEPHIEQIMAHITNYVNDAHPRVQYAACNAIGQMSSDFAPTLQKKCHAAVIPALLESLDRTDVPRVCAHAASALVNFAEECPKSIIGQYLPFILQKLENVLSAVFNRLGDKRYQVVVENIVTAIASVAEAAEELFKEHHARLIPNLVHILQNVGELKELRGKTIECISLIGYAVGKEQFHATAIEILNLLGDGMKDLAIDDPQYSYMISSWTRFCSILGADFAPFLPVVMDPVLRAARYRPDFNIFNNEDVHENEEGVEYHGIGGEKTVGIRTSGLEEKATACDMLVAFAKEMKEAFMPYVVDVYELAIKNLDFGLHDGVRTASAEIMPCLLTCVEKQGLADKRRLWCEFLKALTTSMEEEDDVEILASFMTTIGSCIEVMKTEGIAEEEVQLIISVLLKQLENYGKRMSDRPVEDEDDDDAEAKEELDYFMELEASCLGAISDLTHSLMKEFKGTIFEGMINVFNCAIQLIEGSKQYFERQWGMCLLDDAIEFGVGHMPTRFPKLIPIMYKLLGDEYPEVRQAASYGFGVMAINYHQISDYRNEILSCLEPLAAMIQREDARATEESTVATENAISAFAKIIGNVPLPAEAYGKVVEMFLSWLPTYSDTEESPYIYTCLAELFDKQDAALFGPENQNLPRIFLVCLLSIANDAFNDDDSGNQTKQRIVTILKQIYASFPQFAQQDGIDEHLTSVLQQTLNGQ	not soluble
MDVRQVLHMKGGAGENSYAMNSFIQRQVISITKPITEAAITALYSGDTVTTRLAIADLGCSSGPNALFAVTELIKTVEELRKKMGRENSPEYQIFLNDLPGNDFNAIFRSLPIENDVDGVCFINGVPGSFYGRLFPRNTLHFIHSSYSLMWLSQVPIGIESNKGNIYMANTCPQSVLNAYYKQFQEDHALFLRCRAQEVVPGGRMVLTILGRRSEDRASTECCLIWQLLAMALNQMVSEGLIEEEKMDKFNIPQYTPSPTEVEAEILKEGSFLIDHIEASEIYWSSCTKDGDGGGSVEEEGYNVARCMRAVAEPLLLDHFGEAIIEDVFHRYKLLIIERMSKEKTKFINVIVSLIRKSD	soluble
MDVSAYPFFRRDMSWLSFNERVLMEAADRTLPVYDRIKFLSIFSSNLEEFYTVRVAYHQAVLQKRRDRSEAEEDSDADAHILQAIRETVIRQDELYYRIFYDQILPTLEEHGIRLRTHAPTHPDHKAYLRRFFHEEIFPLLYPMLLLPSKVRTFIRSGRVYLAVRLKEKETDEAYSYALLNVPTDGLPRFVELPRLQTDTFYYYSFLEDIIKEHLDVVFPGYEVMDSYSIKVSRDADLLLDAQRPEDLPGEIRKKVKTRKLGAPTRFMYDGRMPDEVLRYICSSCDIDPEEAIRSGNYVNLQDLAMLPNPFAPRLETLTPEPLLSKHLEQAPSLMEGIRRKDYLIHVPYYTYDYVVRLLMEAAISPDVSEIRLTQYRVAENSSIISALEAAAQSGKKVSVFVELKARFDEENNLRLSERMRRSGIRIVYSMPGLKVHAKTALILYHTPAGERPQGIALLSTGNFNETTARIYSDTTLMTANTDIVHDVYRLFRILDGDPEPARFSRLLVARYNMGEAITNLIEREIENVKRGKRGYMLLKMNGLQDKNVITQLYRASEAGVEIDLIVRGICCLVPDMPQSRNIRVTRLVDMYLEHSRIWCFHNGGKEEVFISSADWMKRNLYNRIETACPVLDPALRREIIDILEIQLRDNIKACRIDSSLNNIYKHNSDEKPVRAQAAIYRYLKGKEEATPAAK	not soluble
MDVSLESLVNSLQATRSTLLSEIEMLNDTEVNVKPRRDKWSIIQILHHLHLVEQSVTSALVYALQKNERNMTPFKDLQLTLDRTHKREAPQQMQPTETLMKKQQGIQLLEHSRQELLHALHSVIDEKDLFENGLKHPVFNDLNLYQWVQFLDLHEQRHLTQLKEAKHAILQR	not soluble
MDVTQLKMLRNAKVVSEIKKGFSIDKKYQVDETYLVRVFPKELLQTRKQEFEIIQALGSQTPFVPRAYDFGCTGGEGYMIIGYVRGEDAENGMFRLSHSEQFKAGFSAGEILREVHKIPLDIPKMNWLDFQTAKFKRKVEELKELEITASFLTETEQFVYENIARLKNRPVCLQHGDFHPANIILKNKKFAGLIDFNRLEFGDPLFDLAKIGFFTTEVSIPFARGNILGYIDKEEVTDFWNLYALYTAMHITSAVNWAAKNESRNFNKLMNYAAKTAASHDNFQKLMPDWMNKEEFK	not soluble
MDWEKVGLKMGLEIHQQLDTESKLFCPCRTELTDSEPDHDIVRNLRPTQSELGKFDRAAFEEAMRKLHFHYENYHEETCLVEADEEPPHPLNPEALEIAVTIALLLNMRVVDEFHTMRKQVIDGSNTGGFQRTGLVATDGHLETPQGTVKIENLCLEEDAARRIRETGDGVVFRLDRLGIPLVEITTDPSMSDPQQLREVAYQIGQILRSTRVKRGLGTIRQDLNISIRDGARVEVKGVQDLDLIPEIVEREVKRQLSLVEIRDTLQERGAVVEDKIFDVSEVFADTESRIISSAESVLAVKLRGFDGLIGVEIQPGRRLGTEMADYAKKRGVSGIFHTDELPAYGITEEEVRGLRDAVGASQGDAVVMVAHERVTAENALREVIRRAEMAIQGVPEETRKALPDGNTQYLRPLPTSSRMYLETDIPLFRIEDDLLEGIRRNLPELPSEKKERIMRDYGLSEDLASQLVKRNLVDEFEALTEFRVDTTVIASLLAYTLRELRREGHDVDGLGLDELRDAIKLLEVGKISKDALRDIVACMADEGLAAEDAARKLNLLLLAEDEIESIIQEIVEGNLDMISERGMGAMGPLMGQAMGRLRGRADGKVVNRILREKIQERL	soluble
MDYDVLILGGGIIGCSVAYELSKYNLNIALIEKDFDIADDVSFVNTAIVYDGSECKDNLMSYLENMGNMMLPEITKKLNVPFKRVGHLTIADNDETVRIIEENYKRAKSRGINNIYLIDEKRAREIEPNYKGEIKKAMYSENIAVTSPYDLAIGFAEIAYDNGVSFRLEEIVLDIQSIAKGFKVTTNKNKFTCRFVINTTPGEHYTIDQDKDYEQKNALKTYYLLLNDEIKEKTSNIVVKLKNEEEFIIQKNTVNGDTLIGINSNNSLGFMKSLKIAKEMINSISRKHVKDIFYDNHNQDRLIIDDSRKNKGYIKVMGNHYGEVTIAPAVSKIICDEIIDKLNCSLNKNFVDKRREFYRFRELSNEERNELISLDKRYGKIVCLCNGISEGEIVDCIRRPLGARTVEGVKRRTGATFGTCHGAYCISKIINILARELEKKPTEIVEDSKNSKVLASRIKEFDRVLEHHHHHH	not soluble
MDYRQLHRWDLPPEEAIKVQNELRKKIKLTPYEGEPEYVAGVDLSFPGKEEGLAVIVVLEYPSFKILEVVSERGEITFPYIPGLLAFREGPLFLKAWEKLRTKPDVVVFDGQGLAHPRKLGIASHMGLFIEIPTIGVAKSRLYGTFKMPEDKRCSWSYLYDGEEIIGCVIRTKEGSAPIFVSPGHLMDVESSKRLIKAFTLPGRRIPEPTRLAHIYTQRLKKGLFLEHHHHHH	soluble
MDYYRVGTLVNTHGIRGEVKVVVVTDFPEERFKVGQQLSLFKTPDETTGGITVKIAKAREQKGLYFLTFEGLDNINDVERYKGWTIKVPAEALHALPAGEYYYHQIVGLQVVTTADEPLGTIKEILSPGANDVWVVKRDHGQSDVLLPKIPQVIKDVDLDAGVVTVELMEGLIDLEHHHHHH	soluble
MEALAMAGVDYQEWGLSIEEWELQESVVPLHLLADDFKEEEQEEDHQDNDDDDRVLDGLAVKQSVTRDIRASVGKFIEQSMSHMIVHLKQLKFLTLLLENFLFTHVLDFLL	not soluble
